Positions count from the first letter of the chain named.
T1: mouse SIRPA variant hmSIRPA_Δ0 (mouse (with human residues), UniProt P97797 35-513)
T1 construct: FLAG-tagged (pFLAG V5-DEST), on 293α cells
T1 chain: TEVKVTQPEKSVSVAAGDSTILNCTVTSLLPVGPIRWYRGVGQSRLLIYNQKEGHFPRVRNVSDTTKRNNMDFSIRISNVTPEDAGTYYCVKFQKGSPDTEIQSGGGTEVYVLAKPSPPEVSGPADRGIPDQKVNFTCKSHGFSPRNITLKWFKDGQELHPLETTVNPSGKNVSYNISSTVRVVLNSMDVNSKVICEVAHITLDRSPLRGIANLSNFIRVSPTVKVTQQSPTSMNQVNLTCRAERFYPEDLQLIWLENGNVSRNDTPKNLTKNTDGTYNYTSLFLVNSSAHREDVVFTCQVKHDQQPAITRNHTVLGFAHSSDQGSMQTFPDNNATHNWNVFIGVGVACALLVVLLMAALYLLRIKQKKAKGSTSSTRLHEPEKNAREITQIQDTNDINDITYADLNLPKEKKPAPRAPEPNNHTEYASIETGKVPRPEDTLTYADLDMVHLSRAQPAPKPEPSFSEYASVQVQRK

T2: monkey SIRPA protein (cynomolgus monkey, UniProt P78324 31-504 (human entry))
T2 construct: Expressed on 293α cells from pcDNA3.2 V5-DEST or pFLAG V5-DEST vectors; also called cynomolgus monkey SIRPA; cSIRPA
T2 chain: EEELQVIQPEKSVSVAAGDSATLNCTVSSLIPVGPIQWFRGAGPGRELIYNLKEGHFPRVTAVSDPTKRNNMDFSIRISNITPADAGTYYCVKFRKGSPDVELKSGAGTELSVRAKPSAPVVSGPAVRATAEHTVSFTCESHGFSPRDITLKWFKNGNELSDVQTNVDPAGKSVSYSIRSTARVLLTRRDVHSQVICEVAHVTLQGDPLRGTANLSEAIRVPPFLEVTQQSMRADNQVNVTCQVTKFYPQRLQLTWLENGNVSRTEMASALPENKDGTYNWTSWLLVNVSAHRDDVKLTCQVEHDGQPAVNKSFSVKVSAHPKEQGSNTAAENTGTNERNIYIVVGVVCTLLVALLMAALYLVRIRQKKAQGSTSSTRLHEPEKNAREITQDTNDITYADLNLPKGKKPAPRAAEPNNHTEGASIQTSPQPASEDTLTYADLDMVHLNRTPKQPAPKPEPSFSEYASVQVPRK

B1: human chimeric anti-SIRPA antibody cD13 (antibody, human IgG4 S228P, kappa, F234A L235A, V domains shown)
VH: EVQLVESGGGLVQPGRSLKLSCLASGFTFSDYGMIWVRQAPGKGLEWVASISSSSSYIYYADTVKGRFTISRENAKNTLFLHMTSLRSEDTALYYCARRYYGFNYPFDYWGQGVMVTVSS
VL: DTVLTQSPALAVSLGQRVTISCGASKSVRTYMHWYQQKSGQQPKLLIYSASNLEAGVPSRFSGSGSGTDFTLTIDPVEADDIANYYCQQSNEPPYTFGAGTKLELKR
notes: Human IgG4proFALA heavy chain, human kappa light chain; also called cD13 (IgG4pf); human chimeric antibody D13
B2: humanized anti-SIRPA antibody hD13_H1L3 (antibody, human IgG4 S228P, kappa, F234A L235A, V domains shown)
VH: QVQLVESGGGVVQPGRSLRLSCAASGFTFSDYGMIWVRQAPGKGLEWVASISSSSSYIYYADSVKGRFTISRDNSKNRLYLQMNSLRAEDTAVYYCARRYYGFNYPFDYWGQGTMVTVSS
VL: DTQLTQSPSSLSASVGQRVTITCGASKSVRTYMHWYQQKPGKQPKLLIYSASNLEAGVPSRFSGSGSGTDFTLTISSLQPEDFATYYCQQSNEPPYTFGQGTKLEIKR
notes: hH1 heavy chain (IgG4proFALA) and hL3 kappa light chain; also called hD13_HIL3; HIL3 antibody
B3: humanized anti-SIRPA antibody hD13_H1L4 (antibody, human IgG4 S228P, kappa, F234A L235A, V domains shown)
VH: B2 VH
VL: DTVLTQSPDSLAVSLGQRATINCGASKSVRTYMHWYQQKPGQQPKLLIYSASNLEAGVPSRFSGSGSGTDFTLTISSLQAEDVAVYYCQQSNEPPYTFGQGTKVEIKR
notes: hH1 heavy chain (IgG4proFALA) and hL4 kappa light chain; also called hD13_HIL4; hD13_HIL4h
B4: humanized anti-SIRPA antibody hD13_H2L2 (antibody, human IgG4 S228P, kappa, F234A L235A, V domains shown)
VH: B2 VH with Q1E, R78T
VL: B2 VL with D1A, T2I, Q43A
notes: hH2 heavy chain (IgG4proFALA) and hL2 kappa light chain; also called H2L2 antibody
B5: humanized anti-SIRPA antibody hD13_H2L3 (antibody, human IgG4 S228P, kappa, F234A L235A, V domains shown)
VH: B2 VH with Q1E, R78T
VL: B2 VL
notes: hH2 heavy chain (IgG4proFALA) and hL3 kappa light chain; also called H2L3 antibody

Target: T1, mouse SIRPA variant hmSIRPA_Δ0
Experiment: cell-based ELISA on 293α cells expressing FLAG-tagged hmSIRPA_Δ0; Abs 490 normalized to FLAG tag [i]
Protocol: After the culture supernatant of 293α cells into which the pFLAG V5-DEST-hmSIRPA_Δ0, Δ1, and Δ2 expression vector prepared in 2)-1-2-2 was introduced and the pFLAG V5-DEST-introduced 293α cells was removed, 50 μL per well of four different D13 humanized anti-human SIRPA antibodies and a chimeric anti-human SIRPA antibody diluted with 5% FBS-containing PBS to a final concentration of 10,000 ng/mL were added to these cells, and the mixture was allowed to stand at 4° C. for one hour. Further, 50 μL per well of an anti-FLAG M2 antibody (SIGMA) diluted with 5% FBS-containing PBS to a final concentration of 10,000 ng/mL was added to a well for detecting expression of each SIRPA construct, and the mixture was allowed to stand at 4° C. for one hour. Thereafter, binding to each construct was evaluated in the same manner as in the evaluation of the binding activity of the human SIRPA. Binding of anti-human SIRPA antibodies to each construct was standardized by expression of the FLAG tag.

| Binder | binding result |
| --- | --- |
| B1 | binds |
| B2 | binds |
| B3 | binds |
| B4 | binds |
| B5 | binds |

Target: T2, monkey SIRPA protein
Experiment: cell-based ELISA on 293α cells expressing FLAG-tagged monkey SIRPA; Abs 490 normalized to FLAG tag [iii]
Protocol: The 293a cells, described in Example 1)-6, were prepared at 5× 10⁵ cells/mL in a 10% FBS-containing DMEM medium. pFLAG V5-DEST-SIRPA_V1-V10, pFLAG V5-DEST-monkey SIRPA, pFLAG V5-DEST-mouse SIRPA, or pFLAG V5-DEST was introduced into the cells using Lipofectamine LTX (Invitrogen), and 100 μL each was aliquoted to a 96-well plate (Corning Incorporated) and cultured overnight in a 10% FBS-containing DMEM medium at 37° C. under a 5% CO₂ condition. The obtained introduced cells were used for cell-based ELISA in a state that they adhered. After the culture supernatant was removed, 50 μL per well of hD13_HIL3, hD13_HIL4h, hD13_H2L2, hD13_H2L3, or cD13 prepared in Examples 6 and 7 or a control antibody was added to each of various SIRPA genes-introduced cells at a final concentration of 0 to 10,000 ng/ml, and the mixture was allowed to stand at 4° C. for one hour. Thereafter, binding to human SIRPA was evaluated in the same manner as in Example 5-1.

| Binder | EC50 (read off the curve) [µg/mL] |
| --- | --- |
| B1 | ~0.03 |
| B2 | ~0.03 |
| B3 | ~0.03 |
| B4 | ~0.03 |
| B5 | ~0.03 |

The binders below were run against T3, human SIRPA_V1 protein (human, UniProt P78324 31-504) (assay: blocking cell-based ELISA: peroxidase-labeled CD47-Fc (1 µg/mL) on 293α cells expressing SIRPA_V1; y axis = CD47-Fc signal relative to no antibody (100)).
T3 construct: Expressed on 293α cells from pcDNA3.2 V5-DEST or pFLAG V5-DEST (FLAG-tagged) vectors; also called human SIRPA Variant 1; hSIRPA V1
Protocol: After the culture supernatant of human SIRPA or monkey SIRPA expression vector-introduced 293α cells prepared in Example 8)-1 was removed, 50 μL per well of hD13_HIL3, hD13_HIL4h, hD13_H2L2, or hD13_H2L3 diluted with 5% FBS-containing PBS to a final concentration of 0 to 10,000 ng/ml was added to each of pcDNA3.2 V5-DEST-SIRPA_V1, pcDNA3.2 V5-DEST-SIRPA_V2, pcDNA3.2 V5-DEST-monkey SIRPA, and pcDNA3.2 V5-DEST-introduced 293α cells, immediately followed by addition of peroxidase-labeled CD47-Fc prepared with 5% FBS-containing PBS at 1 μg/mL, and the mixture was allowed to stand at 4° C. for one hour. Thereafter, the SIRPA-CD47 binding inhibitory activity was evaluated in the same manner as in 1)-6-3.

T3 sequence (P78324 31-504 limits assumed): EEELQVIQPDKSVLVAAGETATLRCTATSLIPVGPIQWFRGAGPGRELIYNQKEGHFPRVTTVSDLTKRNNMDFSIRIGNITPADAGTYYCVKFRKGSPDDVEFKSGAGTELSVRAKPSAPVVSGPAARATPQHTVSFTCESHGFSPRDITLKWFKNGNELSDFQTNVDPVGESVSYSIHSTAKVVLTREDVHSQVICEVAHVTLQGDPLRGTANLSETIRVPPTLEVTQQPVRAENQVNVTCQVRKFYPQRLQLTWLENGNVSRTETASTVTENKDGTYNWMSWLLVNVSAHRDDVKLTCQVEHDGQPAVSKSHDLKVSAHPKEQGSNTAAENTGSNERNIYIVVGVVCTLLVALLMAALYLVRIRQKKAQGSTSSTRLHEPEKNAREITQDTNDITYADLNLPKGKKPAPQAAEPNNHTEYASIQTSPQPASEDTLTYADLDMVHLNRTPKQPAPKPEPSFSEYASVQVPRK

| Binder | IC50 (read off the curve) [µg/mL] |
| --- | --- |
| B1 | ~0.7 |
| B2 | ~0.5 |
| B3 | ~0.5 |
| B4 | ~0.6 |
| B5 | ~0.6 |
